The values that follow come from the Human Domainome abundance scans (Beltran et al. 2025).

± gives the uncertainty stated by the source.

B1: Zinc finger MYM-type protein 3, residues 589 to 668; numbered along this chain, Q14202 (parent)
chain: LSCHYCHSLFSGKPEVLDWQDQVFQFCCRDCCEDFKRLRGVVSQCEHCRQEKLLHEKLRFSGVEKSFCSEGCVLLYKQDF

Variants of B1 are the subject of the series. The series can be described thus: abundance fitness (aPCA) (normalised: wild type 0, dead -1); higher = more abundant; growth selection in yeast, the domain comes from the species named. The note with it: Homo sapiens.
Regarding LSCHYCHSLFSCKPEVLDWQDQVFQFCCRDCCEDFKRLRGVVSQCEHCRQEKLLHEKLRFSGVEKSFCSEGCVLLYKQDF [G12C], the abundance fitness was -0.272 ± 0.067.

As for LSCHYCHSLFSQKPEVLDWQDQVFQFCCRDCCEDFKRLRGVVSQCEHCRQEKLLHEKLRFSGVEKSFCSEGCVLLYKQDF [G12Q], the abundance fitness is -0.003 ± 0.048.

For the variant LSTHYCHSLFSGKPEVLDWQDQVFQFCCRDCCEDFKRLRGVVSQCEHCRQEKLLHEKLRFSGVEKSFCSEGCVLLYKQDF [C3T], the abundance fitness was -0.936 ± 0.085.

With LSCHYCYSLFSGKPEVLDWQDQVFQFCCRDCCEDFKRLRGVVSQCEHCRQEKLLHEKLRFSGVEKSFCSEGCVLLYKQDF [H7Y], the abundance fitness turned out to be 0.112 ± 0.053.

Regarding LSCHYCHSLFSGKPEVLDWQDQVFQFCCRDCCEDFKRLRGVVSQCEHCRQEKLLHEKVRFSGVEKSFCSEGCVLLYKQDF [L58V], the abundance fitness came to 0.544 ± 0.089.

As for LSCHYCHSLFSGKPEVLDWQVQVFQFCCRDCCEDFKRLRGVVSQCEHCRQEKLLHEKLRFSGVEKSFCSEGCVLLYKQDF [D21V], the abundance fitness was -0.355 ± 0.052.

With LSCHYCHSLFSGKPEVLDWQDQVFQFCCRDCCEDFKRLRGVVSQCEACRQEKLLHEKLRFSGVEKSFCSEGCVLLYKQDF [H47A], the abundance fitness was -0.169 ± 0.13.

For the variant LSCHYCHSLFSGKPEVLDWQDQVFQFCCRDCCEDFKRLRGVVSQCEMCRQEKLLHEKLRFSGVEKSFCSEGCVLLYKQDF [H47M], the abundance fitness is -0.061 ± 0.2.

On to LSCHYCHSLFSGKPEVLDWQDQVFQFCCRDCCEDFKRLRGVVSVCEHCRQEKLLHEKLRFSGVEKSFCSEGCVLLYKQDF [Q44V], for which the abundance fitness came to 0.767 ± 0.072.

As for LSCHYCHSLFSGKPEVLDWQDQVFQFCCRDCCEDFKRLRGVVSKCEHCRQEKLLHEKLRFSGVEKSFCSEGCVLLYKQDF [Q44K], the abundance fitness worked out at 1.04 ± 0.083.

For LSCHYCHSLFSGKPEVLDWQDQVFQFCCRDCCEDFKRLRGVVSLCEHCRQEKLLHEKLRFSGVEKSFCSEGCVLLYKQDF [Q44L], the abundance fitness turned out to be 0.854 ± 0.079.

On to LSCHYCHSLFSGKPEVLDWQDQVFQFCCRDCCEDFKRLRGVVSRCEHCRQEKLLHEKLRFSGVEKSFCSEGCVLLYKQDF [Q44R], for which the abundance fitness was found to be 0.889 ± 0.075.

With LSCHYCHSLFSGKPEVLDWQDQVFQFCCRDCCEDFKRLRGVVAQCEHCRQEKLLHEKLRFSGVEKSFCSEGCVLLYKQDF [S43A], the abundance fitness was -0.076 ± 0.097.

With LSCHYCHSLFSGKPEVLDWQDQVFQFFCRDCCEDFKRLRGVVSQCEHCRQEKLLHEKLRFSGVEKSFCSEGCVLLYKQDF [C27F], the abundance fitness was -0.607 ± 0.17.

As for LSCHYCHSLFSGKPEVLDWQDQVFQFRCRDCCEDFKRLRGVVSQCEHCRQEKLLHEKLRFSGVEKSFCSEGCVLLYKQDF [C27R], the abundance fitness was -0.756 ± 0.055.

For LSCHYCHSLFSGKPEVLDWQDQVFQFCCKDCCEDFKRLRGVVSQCEHCRQEKLLHEKLRFSGVEKSFCSEGCVLLYKQDF [R29K], the abundance fitness is 0.002 ± 0.046.

With LSCHYCHSLFSGKPEVLDWQDQVFQFCCNDCCEDFKRLRGVVSQCEHCRQEKLLHEKLRFSGVEKSFCSEGCVLLYKQDF [R29N], the abundance fitness is 0.206 ± 0.075.

As for LSCHYCHSLFSGKPEVLDWQDQVFQFCCRICCEDFKRLRGVVSQCEHCRQEKLLHEKLRFSGVEKSFCSEGCVLLYKQDF [D30I], the abundance fitness is -0.243 ± 0.088.

With LSCHYCHSLFSGKPEVLDWQDQVFQICCRDCCEDFKRLRGVVSQCEHCRQEKLLHEKLRFSGVEKSFCSEGCVLLYKQDF [F26I], the abundance fitness is -0.731 ± 0.14.

In the case of LSCHYCHYLFSGKPEVLDWQDQVFQFCCRDCCEDFKRLRGVVSQCEHCRQEKLLHEKLRFSGVEKSFCSEGCVLLYKQDF [S8Y], the abundance fitness is 0.192 ± 0.076.

For LSCHYCHSLFSGKPEVLDWQDQVFQFCCRDCCEDFKRLRGVVSQCEHCRQEKLLHEKLRFSVVEKSFCSEGCVLLYKQDF [G62V], the abundance fitness was -0.8 ± 0.33.

On to LSCHYCHSLFSGKPEVLDWQDQVFQFCIRDCCEDFKRLRGVVSQCEHCRQEKLLHEKLRFSGVEKSFCSEGCVLLYKQDF [C28I], for which the abundance fitness is -0.703 ± 0.13.

On to LSCHYCHSLFSGKPEVLDWQDQVFQFCCRDCCEDFKRLRGVVSQCEHCRQEWLLHEKLRFSGVEKSFCSEGCVLLYKQDF [K52W], for which the abundance fitness was -0.699 ± 0.18.

For the variant LECHYCHSLFSGKPEVLDWQDQVFQFCCRDCCEDFKRLRGVVSQCEHCRQEKLLHEKLRFSGVEKSFCSEGCVLLYKQDF [S2E], the abundance fitness is 0.159 ± 0.058.

On to LICHYCHSLFSGKPEVLDWQDQVFQFCCRDCCEDFKRLRGVVSQCEHCRQEKLLHEKLRFSGVEKSFCSEGCVLLYKQDF [S2I], for which the abundance fitness is 0.311 ± 0.069.

In the case of LSCHYCHSLFSGKPEVLDWADQVFQFCCRDCCEDFKRLRGVVSQCEHCRQEKLLHEKLRFSGVEKSFCSEGCVLLYKQDF [Q20A], the abundance fitness came out at 0.265 ± 0.051.

Consider LSCHYCHSLFSGKPEVLDWMDQVFQFCCRDCCEDFKRLRGVVSQCEHCRQEKLLHEKLRFSGVEKSFCSEGCVLLYKQDF [Q20M], for which the abundance fitness was 0.394 ± 0.053.

With LSCHYCHSLFSGKPEVLDWDDQVFQFCCRDCCEDFKRLRGVVSQCEHCRQEKLLHEKLRFSGVEKSFCSEGCVLLYKQDF [Q20D], the abundance fitness came out at 0.456 ± 0.054.

Consider LSCHYCHSLFSGKPEVLDWSDQVFQFCCRDCCEDFKRLRGVVSQCEHCRQEKLLHEKLRFSGVEKSFCSEGCVLLYKQDF [Q20S], for which the abundance fitness came out at 0.245 ± 0.047.

On to LSCHYCHSLFSGKPEVLDWQDQVFQFCCRDCCEMFKRLRGVVSQCEHCRQEKLLHEKLRFSGVEKSFCSEGCVLLYKQDF [D34M], for which the abundance fitness came to 0.17 ± 0.044.

For the variant LSCHYCHSLFSGKPEVLDWQDQVFQFCCRDCCEDFKRLRGVVSQCEHCRQEKLLHEDLRFSGVEKSFCSEGCVLLYKQDF [K57D], the abundance fitness worked out at 0.159 ± 0.37.

Take LSCYYCHSLFSGKPEVLDWQDQVFQFCCRDCCEDFKRLRGVVSQCEHCRQEKLLHEKLRFSGVEKSFCSEGCVLLYKQDF [H4Y]: the abundance fitness came out at 0.116 ± 0.059.

On to LSCLYCHSLFSGKPEVLDWQDQVFQFCCRDCCEDFKRLRGVVSQCEHCRQEKLLHEKLRFSGVEKSFCSEGCVLLYKQDF [H4L], for which the abundance fitness is -0.05 ± 0.04.

Take LSCHYCHSLFSGKPEVLDWQDQVFQFCCRDCCEDFKRLRGVVSQCEHCRQEKLLHEKLRFSGREKSFCSEGCVLLYKQDF [V63R]: the abundance fitness was -0.285 ± 0.11.

With LSCHYCHSLFSGKPEVLDWQDQVFQFCCRDCCEDFKRLRGVVSQCEHCRQEKLLHEKLSFSGVEKSFCSEGCVLLYKQDF [R59S], the abundance fitness was found to be 0.541 ± 0.13.
